Values of other authors as cited in PMC4666935.

How the values were obtained:
[1] = target: PAI-1 (Homo sapiens) (UniProt P05121)
[2] = target: uPA-PAI-1 complex (Homo sapiens) (UniProt P00749)
uPA-PAI-1 complex (Homo sapiens), sequence (P05121 24-402, chain 2 of 2, other chains not shown): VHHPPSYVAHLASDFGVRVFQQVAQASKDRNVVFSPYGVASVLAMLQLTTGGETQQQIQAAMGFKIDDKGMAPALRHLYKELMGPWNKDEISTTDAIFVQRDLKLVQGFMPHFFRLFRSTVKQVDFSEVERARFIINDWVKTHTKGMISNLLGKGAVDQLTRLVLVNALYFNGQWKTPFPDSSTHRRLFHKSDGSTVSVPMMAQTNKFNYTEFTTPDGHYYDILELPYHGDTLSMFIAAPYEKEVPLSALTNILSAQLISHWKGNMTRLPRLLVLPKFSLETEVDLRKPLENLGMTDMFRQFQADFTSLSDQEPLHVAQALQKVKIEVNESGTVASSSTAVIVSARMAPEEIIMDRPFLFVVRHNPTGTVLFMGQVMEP

vasoinhibin, sequence (P01236 29-227): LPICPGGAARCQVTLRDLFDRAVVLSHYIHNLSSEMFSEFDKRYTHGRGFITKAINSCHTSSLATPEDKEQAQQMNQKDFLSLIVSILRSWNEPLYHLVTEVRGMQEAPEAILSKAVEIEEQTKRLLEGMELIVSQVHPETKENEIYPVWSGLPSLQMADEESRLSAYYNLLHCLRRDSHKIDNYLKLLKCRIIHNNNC
PAI-1 (Homo sapiens), sequence (P05121 24-402): as the sequence (P05121 24-402, chain 2 of 2, other chains not shown) above

- Kd [1]: 1 µM
- Kd [2]: 0.5 µM
Substance: vasoinhibin (from UniProt P01236)
